The target of data set [1] is T1, PglX (PglX-SAM) (Salmonella enterica, UniProt A0A6C7IK61).
T1 construct: gene STMMW_44401
The conditions noted are these: PglX incubated with 1 mM SAM before crystallisation; methyltransferase pocket between GSG and NPPY motifs; no DNA.

Data set [2] concerns the target T2, PglX-SAM:Ocr complex (Salmonella enterica, UniProt A0A6C7IK61).
T2 construct: gene STMMW_44401
The conditions noted are these: PglX incubated with 1 mM SAM, then Ocr, before crystallisation; same methyltransferase pocket.

Data set [3] deals with PglX (Salmonella enterica serovar Typhimurium ST313 strain D23580 BREX methyltransferase), wild type (Salmonella enterica serovar Typhimurium ST313 strain D23580). Kind of data set: mass photometry; PglX proteins with equimolar Ocr; TwoMP (Refeyn); 1 uM for 1 h on ice in 10 mM Tris pH 7.9, 25 mM NaCl, 0.5 uM SAM, 0.5 uM MgCl2, then diluted to 5 nM.
Data set [4] has as its target T3, PglX WT (Salmonella D23580 (S. Typhimurium), UniProt A0A6C7IK61 1-1225).
T3 sequence: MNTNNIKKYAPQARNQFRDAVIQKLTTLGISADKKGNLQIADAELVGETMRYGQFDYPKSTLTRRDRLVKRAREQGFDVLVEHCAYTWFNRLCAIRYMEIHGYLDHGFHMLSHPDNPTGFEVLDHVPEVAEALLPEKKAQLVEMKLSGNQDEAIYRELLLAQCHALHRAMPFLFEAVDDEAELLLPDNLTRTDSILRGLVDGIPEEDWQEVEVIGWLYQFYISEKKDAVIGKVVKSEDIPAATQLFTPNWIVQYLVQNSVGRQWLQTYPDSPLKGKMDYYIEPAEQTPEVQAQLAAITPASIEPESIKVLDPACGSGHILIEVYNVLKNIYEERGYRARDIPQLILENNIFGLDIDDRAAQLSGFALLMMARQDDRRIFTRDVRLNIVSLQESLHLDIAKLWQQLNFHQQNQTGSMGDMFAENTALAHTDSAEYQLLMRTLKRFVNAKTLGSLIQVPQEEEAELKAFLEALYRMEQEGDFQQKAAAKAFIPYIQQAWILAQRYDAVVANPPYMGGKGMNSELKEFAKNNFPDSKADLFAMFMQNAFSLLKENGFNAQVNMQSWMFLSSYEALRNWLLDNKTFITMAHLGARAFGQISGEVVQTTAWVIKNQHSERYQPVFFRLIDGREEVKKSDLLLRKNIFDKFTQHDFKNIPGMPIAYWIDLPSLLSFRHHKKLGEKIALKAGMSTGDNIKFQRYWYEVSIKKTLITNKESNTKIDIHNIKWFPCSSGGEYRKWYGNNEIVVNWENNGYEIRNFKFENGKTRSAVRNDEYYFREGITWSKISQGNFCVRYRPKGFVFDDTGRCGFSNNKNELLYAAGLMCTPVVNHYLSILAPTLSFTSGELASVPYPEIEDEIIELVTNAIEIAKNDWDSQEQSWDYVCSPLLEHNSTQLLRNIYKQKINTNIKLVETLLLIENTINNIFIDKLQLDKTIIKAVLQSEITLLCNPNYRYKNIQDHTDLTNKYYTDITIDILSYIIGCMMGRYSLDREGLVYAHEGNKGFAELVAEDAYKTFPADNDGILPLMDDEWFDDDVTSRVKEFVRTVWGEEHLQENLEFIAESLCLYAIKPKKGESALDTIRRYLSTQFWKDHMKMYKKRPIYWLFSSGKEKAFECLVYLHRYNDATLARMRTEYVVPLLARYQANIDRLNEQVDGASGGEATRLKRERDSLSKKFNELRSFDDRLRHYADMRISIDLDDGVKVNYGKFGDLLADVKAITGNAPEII
Kind of data set: mass photometry; 1:1 and 2:1 complexes; mass photometry (Refeyn); buffer, salt, pH and temperature not given in the material. The conditions noted are these: protein: recombinant; tags: untagged (His/SUMO tag removed by hSENP2); blunt.

Data set [5] concerns the target T4, PglX NTD (Salmonella D23580 (S. Typhimurium), UniProt A0A6C7IK61 1-661).
T4 sequence: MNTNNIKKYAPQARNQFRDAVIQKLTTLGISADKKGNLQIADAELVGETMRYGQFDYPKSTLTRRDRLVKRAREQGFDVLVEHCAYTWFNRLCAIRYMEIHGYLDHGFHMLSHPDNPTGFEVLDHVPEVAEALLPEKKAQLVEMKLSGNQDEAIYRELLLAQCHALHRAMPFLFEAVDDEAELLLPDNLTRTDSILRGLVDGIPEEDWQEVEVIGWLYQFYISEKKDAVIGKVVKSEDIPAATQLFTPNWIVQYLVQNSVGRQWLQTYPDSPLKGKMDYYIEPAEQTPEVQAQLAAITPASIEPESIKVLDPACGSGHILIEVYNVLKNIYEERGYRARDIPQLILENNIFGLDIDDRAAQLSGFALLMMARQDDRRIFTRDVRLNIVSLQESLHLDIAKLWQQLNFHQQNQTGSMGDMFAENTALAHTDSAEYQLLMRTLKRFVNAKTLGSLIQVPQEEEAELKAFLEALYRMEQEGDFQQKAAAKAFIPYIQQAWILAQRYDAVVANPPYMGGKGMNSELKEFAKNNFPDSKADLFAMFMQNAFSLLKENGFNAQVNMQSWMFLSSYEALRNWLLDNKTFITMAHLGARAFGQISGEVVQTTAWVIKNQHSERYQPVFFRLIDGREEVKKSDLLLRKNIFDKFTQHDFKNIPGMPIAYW
Briefly: mass photometry; NTD peak may include free DNA; mass photometry (Refeyn); buffer, salt, pH and temperature not given in the material. Particulars: protein: recombinant; tags: untagged (His/SUMO tag removed by hSENP2); blunt.

The target of data set [6] is T3, PglX WT. Kind of data set: mass photometry; 1:1, 2:1 and 3:1 complexes; mass photometry (Refeyn); buffer, salt, pH and temperature not given in the material. Particulars: protein: recombinant; tags: untagged (His/SUMO tag removed by hSENP2); blunt.
The target in data set [7] is T3, PglX WT. Briefly: mass photometry; 1:1, 2:1 and 3:1 complexes; non-specific; mass photometry (Refeyn); buffer, salt, pH and temperature not given in the material. Particulars: protein: recombinant; tags: untagged (His/SUMO tag removed by hSENP2); blunt.

We go through six molecules from paper PMC11341690.

Residue numbers refer to the chain shown, from its start.

As to `C[S+](CC[C@H](N)C(=O)O)C[C@H]1O[C@@H](n2cnc3c(N)ncnc32)[C@H](O)[C@@H]1O` (stereo partly drawn) [SAM, S-adenosyl-L-methionine], the “X-ray crystal structure, 3.5 A” value in data set [1] is recorded as “crystallographic structure of Salmonella PglX bound to S-adenosyl-L-methionine (SAM), a co-factor for methylation”; in data set [2], “visible in the PglX-SAM:Ocr structure is a bound SAM molecule”.
Consider “Ocr from phage T7 (DNA mimic, anti-restriction and anti-BREX protein) (from UniProt P03775 1-117) (natural protein)”, for which, in data set [3], the stoichiometry N (Ocr per PglX (1:2 PglX WT:Ocr)) is 2 and the stoichiometry N (Ocr per PglX (2:2 PglX WT:Ocr)) was 1.

B1: DNA 1 (TRB2180/TRB2181) (dsDNA)
DNA 1: GGTATCCGTTCGTCATAGGCTCAAAGCGTCTCCTGAGTCTCGGATCAGTACGAACTACCGGAACCAACACGACTGATCGTCTTCGGTGACCATTGCAACACTAGTATCTCGAGTGCCGTG
DNA 2: CACGGCACTCGAGATACTAGTGTTGCAATGGTCACCGAAGACGATCAGTCGTGTTGGTTCCGGTAGTTCGTACTGATCCGAGACTCAGGAGACGCTTTGAGCCTATGACGAACGGATACC
With B1, the values for the binding result in data set [4] and in data set [5] were “binds” and “no binding”, respectively.

B2: DNA 3 (TRB2184/TRB2185) (dsDNA)
DNA 1: B1 DNA 1 with T74A, G75A, A76T, T77A
DNA 2: B1 DNA 2 with A44T, T45A, C46T, A47T
In the case of B2, the binding result was “binds” in data set [6] and “no binding” in data set [5].

B3: DNA 4 (TRB2186/TRB2187) (dsDNA)
DNA 1: B1 DNA 1 with G43T, A44G, C46A, A47C, G48C, T74A, G75A, A76T, T77A
DNA 2: B1 DNA 2 with A44T, T45A, C46T, A47T, C73G, T74G, G75T, T77C, C78A
Turning to B3, the results for the binding result in data set [5] and in data set [7] were “no binding” and “binds”, respectively.

B4: DNA 2 (TRB2182/TRB2183) (dsDNA)
DNA 1: B1 DNA 1 with C73G, T74A, G75T, A76C, T77A, C78G
DNA 2: B1 DNA 2 with G43C, A44T, T45G, C46A, A47T, G48C
Take B4: the figures for the binding result in data set [4] and in data set [5] were “binds” and “no binding”, respectively.
